Measured values published in publication PMC11301080.

Molecular target: recombinant HIV-1 gp120 ZM109 (HIV-1)
Experiment: BLI

| Substance | Kd [nM] |
| --- | --- |
| Streptococcal Siglec-like lectin SLBR-N, GST-tagged (domain or fragment) | 40.3 |
| recombinant FimH protein, lectin domain only (from UniProt P08191 22-179) (domain or fragment) | 360 |
